# PMC5830531
# Experiments:
# Assay in all cases: EMSA
# [1] = test system: MBP-A3H m1 monomer (Homo sapiens (haplotype II)); settings: EMSA: 50 mM HEPES pH 7.5, 250 mM NaCl, 1 mM DTT, 2.5 mM EDTA, 10% glycerol, on ice 10 min, protein up to 8 uM, 8% native PAGE
# [2] = test system: MBP-A3H m1+W115A/C116S monomer (Homo sapiens (haplotype II)); settings: EMSA: 50 mM HEPES pH 7.5, 250 mM NaCl, 1 mM DTT, 2.5 mM EDTA, 10% glycerol, on ice 10 min, protein up to 8 uM, 8% native PAGE
# [3] = test system: MBP-A3H m1+H114A monomer (Homo sapiens (haplotype II)); settings: EMSA: 50 mM HEPES pH 7.5, 250 mM NaCl, 1 mM DTT, 2.5 mM EDTA, 10% glycerol; on ice 10 min; protein up to 8 uM; 1 nM RNA or 10 nM DNA; 8% native PAGE; n=3 …
# [4] = smeared bands, approximate, 1 nM RNA or 10 nM …, n=3, Table
substance,measurement,setting,value
8 nt ssDNA,Kd,[1]; [4],983 nM
same,Kd,[2]; [4],2960 nM
13 nt ssDNA,Kd,"[1]; approximate estimate, monomer assigned from the monomer comparison, 1 nM RNA or 10 nM DNA, n=3 …",272 nM
same,Kd,"[2]; approximate estimate, 1 nM RNA or 10 nM DNA, n=3 …",497 nM
50 nt ssRNA,Kd,"[1]; 1 nM RNA or 10 nM DNA, n=3 …",8 nM
same,Kd,[3],34 nM
same,Kd,"[2]; 1 nM RNA or 10 nM DNA, n=3 …",12 nM
